Source: patent US20240207319A1 (LUDWIG INSTITUTE FOR CANCER RESEARCH, published 2024)
Positions count from the first letter of the chain named. Each block holds one binder with its values, some of them ahead of it.

Target: human PDL1 protein (plate-coated) (human, UniProt Q9NZQ7 19-238, limits assumed)
Test: titration ELISA, soluble monomeric decoy on plates coated with human PDL1 protein, anti-His tag detection
Description: FIGS. 9A, 9B, 9C, and 9D are a set of diagrams showing characterization of PD-1 decoy variants and hCD8+ T cells transduced with the PD-1 decoy variants and tEGFR. […] Bound PD1 decoy molecules were detected with an anti-His tag antibody. […] The engineered T cells were co-cultured at a 1:1 ratio with different PD-L1⁺ target tumor cells (100,000 of each cell type) for 48 hours. NA8 and HLA/A2+NY-ESO-1−, SAOS2, and A375 are HLA/A2+ NY-ESO-1+. The supernatants were collected after 48 hours, diluted 1 in 25, and evaluated for the presence of IFNγ using a commercial ELISA kit from Thermo). […] CD8 T cells engineered with PD1 decoy_tEGFR retrovirus were labeled with chromium. The engineered T cells were co-cultured with anti-EGFR Ab and co-cultured with different ratios of PBMCs from the same donor. The negative control is NT (non-transduced) T cells Killing evaluated at 4 hours. As positive control, T cells were treated with HCl.

Sequence of human PDL1 protein (plate-coated) (Q9NZQ7 19-238 limits assumed): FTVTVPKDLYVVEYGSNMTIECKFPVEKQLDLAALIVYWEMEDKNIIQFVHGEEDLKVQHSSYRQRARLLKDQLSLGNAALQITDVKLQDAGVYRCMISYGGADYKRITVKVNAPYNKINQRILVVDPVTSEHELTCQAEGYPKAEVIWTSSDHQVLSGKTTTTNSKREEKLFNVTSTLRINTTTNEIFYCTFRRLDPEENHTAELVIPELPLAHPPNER

fold better binding than the WT PD1 decoy: 10 fold
B1: PD1_4XMUT_M70 (with 6xHis), soluble monomeric PD1 decoy variant (bacterial production) (receptor)
chain: MASDSPDRPWNPPTFSPALLVVTEGDNATFTCSFSNTSESFVLNWYRMSPSNQDDRLAAFPEDRSQPGQDARFRVTQLPNGRDFHMSVVRARRNDSGTYFCGAISLAPKAKIKESLRAELRVTERRALEHHHHHH

fold better binding than the WT PD1 decoy: ~7.5 fold
B2: PD1_6XDM (with 6xHis), soluble monomeric PD1 decoy variant (bacterial production) (receptor)
chain: B1 chain with D54V, A110W
notes: also called 6×DM; variant 6×DM
